Patent US6492344B1, “Syndecan enhancer element and syndecan stimulation of cellular differentiation” (Biotie Therapies Corp., priority 1993, dated 2002)

How the values were obtained:
[1] = tested on: FGF-inducible Response Element (FiRE); test: pFiRE CAT reporter in syndecan-1 transfected 3T3 cells (3T3 1.5); type: cell-based, mouse; settings: 3T3 1.5 cells expressing high levels of syndecan-1, versus wild type 3T3
From the text: The Enhancer is Not Functional in 3T3 Cells Expressing High Levels of Syndecan-1. Syndecan-1 transfected 3T3 cells (3T3 1.5) and wild type 3T3 cells were transiently transfected with the pFiRE construct, treated with FGF or a negative control, and analyzed for reporter gene (CAT) expression. The results are depicted in FIG. 16. The closed columns indicate relative CAT activity in control cells (without FGF treatment) while the labeled columns depict relative CAT activity in FGF-treated cells.

[2] = tested on: nuclear factors binding FiRE motifs 1-5; type: cell-based, mouse
Description: The Enhancer Comprises Five DNA Binding Motifs. Plasmid pFiRE was end-labeled using Klenow fragment and […]. DNAse I footprinting was performed with labeled pFiRE vector alone (naked), together with FGF-induced nuclear extracts (FGF-2), and together with non-induced nuclear extracts (control). To obtain nuclear extracts, NIH3T3 cells were plated on 16 cm dishes and treated with or without FGF-2 for 1 day. Nuclear proteins were extracted using a modification described by Lee et al., Gene Anal. Techn. 5:22-31 (1988). Protein concentrations were measured by the Bradford method.
In a 12 μl reaction, 5 μg of the nuclear extracts were incubated with labeled oligonucleotide, 2 μg of poly-d[I-C] and 2×reaction buffer, i.e., […], pH 7.5; 100 mM NaCl; 2 mM EDTA; and 10% glycerol for 15 minutes at room temperature. Non-labeled competitor oligonucleotides were used at 100-fold molar excess. The complexes were analyzed by electrophoresis in a 4.5% polyacrylamide gel. For supershifts, 0.1 μg of specific antibody was added to the reaction 15 minutes before the labeled oligonucleotide. […]
These motifs was further analyzed by competing the binding of nuclear factors with a molar excess of specific (s) and non-specific (ns) oligonucleotides. […] The resulting complexes were analyzed by the gel retardation analysis described above. […]

FGF-2: Basic fibroblast growth factor (FGF-2 or bFGF); recombinant human
activation of CAT expression from pFiRE [1]: significantly reduced
nuclear protein binding to motifs 1 and 2 [2]: do not show binding to an FGF-2 inducible factor
nuclear protein binding to motifs 3, 4 and 5 [2]: bind at least one specific FGF-2 inducible nuclear protein
